# Patent publication US20210317225A1 (Genmab, published 2021)
# B1: CD40-001-FEALxCD137-008-FEAR (bispecific antibody, human IgG1, kappa)
# heavy 1: EVQLQQSGPDLVKPGASVKISCKTSGYTFTEYIMHWVKQSHGKSLEWIGGIIPNNGGTSYNQKFKDKATMTVDKSSSTGYMELRSLTSEDSAVYYCTRREVYGRNYYALDYWGQGTLVTVSSASTKGPSVFPLAPSSKSTSGGTAALGCLVKDYFPEPVTVSWNSGALTSGVHTFPAVLQSSGLYSLSSVVTVPSSSLGTQTYICNVNHKPSNTKVDKRVEPKSCDKTHTCPPCPAPEFEGGPSVFLFPPKPKDTLMISRTPEVTCVVVAVSHEDPEVKFNWYVDGVEVHNAKTKPREEQYNSTYRVVSVLTVLHQDWLNGKEYKCKVSNKALPAPIEKTISKAKGQPREPQVYTLPPSREEMTKNQVSLTCLVKGFYPSDIAVEWESNGQPENNYKTTPPVLDSDGSFLLYSKLTVDKSRWQQGNVFSCSVMHEALHNHYTQKSLSLSPGK
# light 1: DIQMTQTTSSLSASLGDRVTITCSASQGINNYLNWYQQKPDGTVKLLIYYTSSLHSGVPSRFSGSGSGTDYSLTISNLEPEDIATYYCQQYSNLPYTFGGGTKLEIKRTVAAPSVFIFPPSDEQLKSGTASVVCLLNNFYPREAKVQWKVDNALQSGNSQESVTEQDSKDSTYSLSSTLTLSKADYEKHKVYACEVTHQGLSSPVTKSFNRGEC
# heavy 2: QSLEESGGRLVTPGTPLTLTCTASGFSLSSYDMSWVRQAPGKGLEYIGYISSSGNTYYASWAKSRFTISKTSTTVDLKITSPTTEDTATYFCAREGDYWDFNLWGPGTLVTVSSASTKGPSVFPLAPSSKSTSGGTAALGCLVKDYFPEPVTVSWNSGALTSGVHTFPAVLQSSGLYSLSSVVTVPSSSLGTQTYICNVNHKPSNTKVDKRVEPKSCDKTHTCPPCPAPEFEGGPSVFLFPPKPKDTLMISRTPEVTCVVVAVSHEDPEVKFNWYVDGVEVHNAKTKPREEQYNSTYRVVSVLTVLHQDWLNGKEYKCKVSNKALPAPIEKTISKAKGQPREPQVYTLPPSREEMTKNQVSLTCLVKGFYPSDIAVEWESNGQPENNYKTTPPVLDSDGSFFLYSRLTVDKSRWQQGNVFSCSVMHEALHNHYTQKSLSLSPGK
# light 2: AQVLTQTPSSVSAAVGGTVTINCQASQSISNLLAWYQQKPGQRPRLLIYRASTLASGVPSRFKGSGSGTEFTLTISDLESEDAATYYCAGGFPGLDTGATFGGGTEAVVTRTVAAPSVFIFPPSDEQLKSGTASVVCLLNNFYPREAKVQWKVDNALQSGNSQESVTEQDSKDSTYSLSSTLTLSKADYEKHKVYACEVTHQGLSSPVTKSFNRGEC
# B2: CD40-001-FEALxCD137-012-FEAR (bispecific antibody, human IgG1, kappa)
# heavy 1: B1 heavy 1
# light 1: B1 light 1
# heavy 2: QSVEESGGRLVTPGTPLTLTCTVSGFSLSDYYMTWVRQAPGKGLEYIGIMSGSGSTYYASWAKGRFTISKTSSTTLELKITSPTTEDTAIYFCARDGDYAGWGYATGAFDPWGPGTLVTVSSASTKGPSVFPLAPSSKSTSGGTAALGCLVKDYFPEPVTVSWNSGALTSGVHTFPAVLQSSGLYSLSSVVTVPSSSLGTQTYICNVNHKPSNTKVDKRVEPKSCDKTHTCPPCPAPEFEGGPSVFLFPPKPKDTLMISRTPEVTCVVVAVSHEDPEVKFNWYVDGVEVHNAKTKPREEQYNSTYRVVSVLTVLHQDWLNGKEYKCKVSNKALPAPIEKTISKAKGQPREPQVYTLPPSREEMTKNQVSLTCLVKGFYPSDIAVEWESNGQPENNYKTTPPVLDSDGSFFLYSRLTVDKSRWQQGNVFSCSVMHEALHNHYTQKSLSLSPGK
# light 2: AAVLTQTPSPVSAAVGGTVTISCQASQSVVGNSLLSWFQKKPGQPPKLLIYSASSLASGVPSRFKGSGSGTQFTLTISDLESDDAATYYCTGRYNSDTDTFVFGGGTEVVVKRTVAAPSVFIFPPSDEQLKSGTASVVCLLNNFYPREAKVQWKVDNALQSGNSQESVTEQDSKDSTYSLSSTLTLSKADYEKHKVYACEVTHQGLSSPVTKSFNRGEC
# B3: CD40-001-FEALxCD137-011-FEAR (bispecific antibody, human IgG1, kappa)
# heavy 1: B1 heavy 1
# light 1: B1 light 1
# heavy 2: QSLEESGGRLVTPGTPLTLTCTVSGIDLSSYHMCWVRQAPGKGLEYIGYIAYGGNTYYANWAKGRFTISKTSTTVDLRITSPTTEDTATYFCARGYSEDSYWGLWGPGTLVTVSSASTKGPSVFPLAPSSKSTSGGTAALGCLVKDYFPEPVTVSWNSGALTSGVHTFPAVLQSSGLYSLSSVVTVPSSSLGTQTYICNVNHKPSNTKVDKRVEPKSCDKTHTCPPCPAPEFEGGPSVFLFPPKPKDTLMISRTPEVTCVVVAVSHEDPEVKFNWYVDGVEVHNAKTKPREEQYNSTYRVVSVLTVLHQDWLNGKEYKCKVSNKALPAPIEKTISKAKGQPREPQVYTLPPSREEMTKNQVSLTCLVKGFYPSDIAVEWESNGQPENNYKTTPPVLDSDGSFFLYSRLTVDKSRWQQGNVFSCSVMHEALHNHYTQKSLSLSPGK
# light 2: AYDMTQTPASVEAAVGGTVTIKCQASQNIENYLAWYQQKPGQPPKLLIYDTSKLTSGVPSRFSGSGSGTDFTLTISGVQSDDAATYYCQQDYGIIFVDNIFGGGTEVVVKRTVAAPSVFIFPPSDEQLKSGTASVVCLLNNFYPREAKVQWKVDNALQSGNSQESVTEQDSKDSTYSLSSTLTLSKADYEKHKVYACEVTHQGLSSPVTKSFNRGEC
# B4: CD40-001-FEALxCD137-009-FEAR (bispecific antibody, human IgG1, kappa)
# heavy 1: B1 heavy 1
# light 1: B1 light 1
# heavy 2: QSLEESGGRLVTPGTPLTLTCTVSGFSLNDYWMSWVRQAPGKGLEWIGYIDVGGSLYYASWAKGRFTISRTSTTVDLKMTSLTTEDTATYFCARGGLTYGFDLWGPGTLVTVSSASTKGPSVFPLAPSSKSTSGGTAALGCLVKDYFPEPVTVSWNSGALTSGVHTFPAVLQSSGLYSLSSVVTVPSSSLGTQTYICNVNHKPSNTKVDKRVEPKSCDKTHTCPPCPAPEFEGGPSVFLFPPKPKDTLMISRTPEVTCVVVAVSHEDPEVKFNWYVDGVEVHNAKTKPREEQYNSTYRVVSVLTVLHQDWLNGKEYKCKVSNKALPAPIEKTISKAKGQPREPQVYTLPPSREEMTKNQVSLTCLVKGFYPSDIAVEWESNGQPENNYKTTPPVLDSDGSFFLYSRLTVDKSRWQQGNVFSCSVMHEALHNHYTQKSLSLSPGK
# light 2: DIVMTQTPASVSEPVGGTVTINCQASEDISSYLAWYQQKPGQRPKRLIYGASDLASGVPSRFSASGSGTEYALTISDLESADAATYYCHYYATISGLGVAFGGGTEVVVKRTVAAPSVFIFPPSDEQLKSGTASVVCLLNNFYPREAKVQWKVDNALQSGNSQESVTEQDSKDSTYSLSSTLTLSKADYEKHKVYACEVTHQGLSSPVTKSFNRGEC
# B5: CD40-001-FEALxCD137-002-FEAR (bispecific antibody, human IgG1, kappa)
# heavy 1: B1 heavy 1
# light 1: B1 light 1
# heavy 2: QSVEESGGRLVTPGTPLTLTCTVSGFSLTYYAVTWVRQPPGKGLEWIGVIYDNGATAFATWAKGRFTMSKNSTTVALKVTSPTTEDTATYFCARSANNAWSTYSNLWGQGTLVTVSSASTKGPSVFPLAPSSKSTSGGTAALGCLVKDYFPEPVTVSWNSGALTSGVHTFPAVLQSSGLYSLSSVVTVPSSSLGTQTYICNVNHKPSNTKVDKRVEPKSCDKTHTCPPCPAPEFEGGPSVFLFPPKPKDTLMISRTPEVTCVVVAVSHEDPEVKFNWYVDGVEVHNAKTKPREEQYNSTYRVVSVLTVLHQDWLNGKEYKCKVSNKALPAPIEKTISKAKGQPREPQVYTLPPSREEMTKNQVSLTCLVKGFYPSDIAVEWESNGQPENNYKTTPPVLDSDGSFFLYSRLTVDKSRWQQGNVFSCSVMHEALHNHYTQKSLSLSPGK
# light 2: DIVMTQTPSSVSAAVGGTVTINCQASEDISSYLSWYQQKLGQPPKLLIYKASTLESGVPSRFKGSGSGTEYTLTISDLESDDAATYYCQSYYSGSISGYGFVFGGGTGVVVKRTVAAPSVFIFPPSDEQLKSGTASVVCLLNNFYPREAKVQWKVDNALQSGNSQESVTEQDSKDSTYSLSSTLTLSKADYEKHKVYACEVTHQGLSSPVTKSFNRGEC
# B6: CD40-001-FEALxCD137-010-FEAR (bispecific antibody, human IgG1, kappa)
# heavy 1: B1 heavy 1
# light 1: B1 light 1
# heavy 2: QSVEESGGRLVTPGTPLTLTCTVSGFSLSTYAMIWVRQAPGKGLEWIGVVYDNGYISHATWVKGRFTISKTSTTVGLEITSPTTEDTATYFCARSADGSWSTYFNLWGQGTLVTVSSASTKGPSVFPLAPSSKSTSGGTAALGCLVKDYFPEPVTVSWNSGALTSGVHTFPAVLQSSGLYSLSSVVTVPSSSLGTQTYICNVNHKPSNTKVDKRVEPKSCDKTHTCPPCPAPEFEGGPSVFLFPPKPKDTLMISRTPEVTCVVVAVSHEDPEVKFNWYVDGVEVHNAKTKPREEQYNSTYRVVSVLTVLHQDWLNGKEYKCKVSNKALPAPIEKTISKAKGQPREPQVYTLPPSREEMTKNQVSLTCLVKGFYPSDIAVEWESNGQPENNYKTTPPVLDSDGSFFLYSRLTVDKSRWQQGNVFSCSVMHEALHNHYTQKSLSLSPGK
# light 2: DIVMTQTPASVEAAVGGTVTIKCQASESISNYLAWYQQKPGQPPKLLIYKASTLASGVSSRFKGSGSGTEFTLTISDLESADAATYYCQTNYCCSSSDNGFAFGGGTEVVVKRTVAAPSVFIFPPSDEQLKSGTASVVCLLNNFYPREAKVQWKVDNALQSGNSQESVTEQDSKDSTYSLSSTLTLSKADYEKHKVYACEVTHQGLSSPVTKSFNRGEC
# Molecular target: Human CD137 (TNR9_Human) (human, UniProt Q07011 24-255)
# Experiment: cell-based or functional assay
# Sequence of Human CD137 (TNR9_Human) (Q07011 24-255): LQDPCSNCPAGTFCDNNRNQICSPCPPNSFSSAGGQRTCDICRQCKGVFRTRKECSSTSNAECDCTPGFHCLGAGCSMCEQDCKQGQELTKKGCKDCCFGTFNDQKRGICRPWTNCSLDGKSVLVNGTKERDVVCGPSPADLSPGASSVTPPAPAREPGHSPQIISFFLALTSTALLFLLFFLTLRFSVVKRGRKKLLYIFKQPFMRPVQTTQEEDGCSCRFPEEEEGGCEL
Binder,"luciferase activity (RLU) of NF-KB/293/GFP-Luc cells transduced with CD137, incubated with K562_CD40 [ng/mL]","EC50 for induction of T-cell proliferation (antigen-specific CD8+ T-cell assay, proliferation index curves) [µg/mL]"
B1,~100,
B2,~100,
B3,~100,
B4,~100,0.03
B5,~100,
B6,~100,

# Molecular target: Human CD40 (human, UniProt P25942 21-277)
# Experiment: cell-based or functional assay
# Sequence of Human CD40 (P25942 21-277): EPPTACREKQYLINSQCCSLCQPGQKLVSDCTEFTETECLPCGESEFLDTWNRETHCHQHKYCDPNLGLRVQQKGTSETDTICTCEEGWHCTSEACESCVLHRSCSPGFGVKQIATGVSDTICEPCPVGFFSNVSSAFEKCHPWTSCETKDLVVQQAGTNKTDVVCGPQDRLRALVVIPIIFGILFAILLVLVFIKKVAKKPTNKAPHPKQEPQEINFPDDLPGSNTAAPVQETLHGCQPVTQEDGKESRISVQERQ
row,Binder,"luciferase activity (RLU) of NF-KB/293/GFP-Luc cells transduced with CD40, incubated with K562_CD137 [ng/mL]"
1,B1,~100
2,B2,~100
3,B3,~100
4,B4,~100
5,B5,~100
6,B6,~100
